The source of these data is patent US20050164323A1 (Pfizer, published 2005).

The assay deals with PKC-θ kinase domain (PKC-θ KD; amino acid residues 362 to 706), C-terminal hexa-histidine tag, expressed in … (Homo sapiens (Human), UniProt Q04759 362-706, autophosphorylated at 5 or 6 residues in E. coli; sites identified: Ser695, Ser685 and Thr538 or Thr536 (numbering of full-length PKC-θ)). The experiment in a line: cell-based or functional assay.
Chain of PKC-θ kinase domain (PKC-θ KD; amino acid residues 362 to 706), C-terminal hexa-histidine tag, expressed in … (Q04759 other isoform, or with tags, fused parts or gaps limits assumed): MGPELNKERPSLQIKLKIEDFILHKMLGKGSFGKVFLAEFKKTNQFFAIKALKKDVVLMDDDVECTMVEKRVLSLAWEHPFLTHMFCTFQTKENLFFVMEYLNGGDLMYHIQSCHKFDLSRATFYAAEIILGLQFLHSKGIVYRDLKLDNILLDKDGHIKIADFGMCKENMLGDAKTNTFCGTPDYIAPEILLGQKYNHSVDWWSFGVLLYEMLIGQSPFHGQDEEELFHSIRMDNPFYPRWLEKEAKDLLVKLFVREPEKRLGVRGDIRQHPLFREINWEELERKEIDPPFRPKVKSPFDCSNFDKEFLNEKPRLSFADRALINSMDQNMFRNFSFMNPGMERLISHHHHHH

Turning to RTPKLARQASIELPSM [Peptide 4 (RTPKLARQASIELPSM), substrate, lymphocyte-specific protein 1], the “appKm (steady-state kinase kinetics, saturating ATP, 100 mM NaCl)” value (“appKm” below) came out at 240 µM.

For the molecule FARKGSLRQ [Peptide 1 (FARKGSLRQ), substrate, pseudo-substrate PKC alpha], the “appKm” value was 6.5 µM.

In the case of LKRSLSEM [Peptide 3 (LKRSLSEM), substrate, Serum Response Factor], the “appKm” value amounted to 420 µM.

As to RFARKGSLRQKNV [Peptide 2 (RFARKGSLRQKNV), substrate, pseudo-substrate PKC alpha], the “appKm” value came out at 4.3 µM.
